Two molecules from article PMC4617978 can be followed below.

Where “and” joins values, the source holds several entries; their conditions need not be identical. Equal entries are not always repeated.

For orientation: stoichiometry N means a count of units in the complex or per binding partner.

The target in assay [1] is His6-tagged BAKΔTM (BAK lacking its transmembrane domain, residues 1–186) (human) (UniProt Q16611). The assay can be described thus: cross-linking.
Assay [2] has as its target MCL1ΔTM (cleaved by thrombin from GST-MCL1ΔTM). The experiment in a line: SPR. For orientation: In SPR one partner is held on a chip, and binding of the other changes the refractive index at the surface.
Assay [3] concerns the target BCLXLΔTM (cleaved by thrombin from GST-BCLXLΔTM). The assay can be described thus: SPR.

On to “His6-tagged BAKΔTM (BAK lacking its transmembrane domain, residues 1–186) (from UniProt Q16611 1-186) (domain or fragment)”, for which the stoichiometry N in assay [1] was 2 and 3.

B1: His6-tagged BAKΔTM (BAK lacking its transmembrane domain, residues 1–186) (domain or fragment)
chain: MASGQGPGPPRQECGEPALPSASEEQVAQDTEEVFRSYVFYRHQQEQEAEGVAAPADPEMVTLPLQPSSTMGQVGRQLAIIGDDINRRYDSEFQTMLQHLQPTAENAYEYFTKIATSLFESGINWGRVVALLGFGYRLALHVYQHGLTGFLGQVTRFVVDFMLHHCIARWIAQRGGWVAALNLGNG
As for B1, the fold less tight binding than BAK BH3 peptide in assay [2] and in assay [3] was 100 fold in each case.
